# In patent US20070071675A1 (AbbVie / Abbott, published 2007):
# B1: DVD1812LL (anti-IL-18/IL-12 DVD-Ig, 18-12-C, long linker) (bispecific antibody)
# heavy: EVQLVQSGTEVKKPGESLKISCKGSGYTVTSYWIGWVRQMPGKGLEWMGFIYPGDSETRYSPTFQGQVTISADKSFNTAFLQWSSLKASDTAMYYCARVGSGWYPYTFDIWGQGTMVTVSSASTKGPSVFPLAPQVQLVESGGGVVQPGRSLRLSCAASGFTFSSYGMHWVRQAPGKGLEWVAFIRYDGSNKYYADSVKGRFTISRDNSKNTLYLQMNSLRAEDTAVYYCKTHGSHDNWGQGTMVTVSS
# light: EIVMTQSPATLSVSPGERATLSCRASESISSNLAWYQQKPGQAPRLFIYTASTRATDIPARFSGSGSGTEFTLTISSLQSEDFAVYYCQQYNNWPSITFGQGTRLEIKRTVAAPSVFIFPPQSVLTQPPSVSGAPGQRVTISCSGSRSNIGSNTVKWYQQLPGTAPKLLIYYNDQRPSGVPDRFSGSKSGTSASLAITGLQAEDEADYYCQSYDRYTHPALLFGTGTKVTVLG
# notes: see recheck on the constant domain of the DVD1812 light chains; also called DVD1812HC-LL/DVD1812LC-LL
# B2: hIL-1a/bDVD1-Ig (bispecific antibody, human IgG1, kappa)
# heavy: not shown
# light: NIVLTQSPASLAVSLGQRATISCRASESVDSYGNSYMHWYQQKPGQPPKLLIYLASNLESGVPARFSGSGSRTDFTLTIDPVEADDAATYYCQQNNEDPFTFGSGTKLEIKRNIQMTQTTSSLSASLGDRVTISCRASQDISNCLNWYQQKPDGTVKLLIYYTSRLHSGVPSRFSGSGSGTDYSLTISNLEQEDIATYFCQQGKTLPYAFGGGTKLEINRRTVAAPSVFIFPPSDEQLKSGTASVVCLLNNFYPREAKVQWKVDNALQSGNSQESVTEQDSKDSTYSLSSTLTLSKADYEKHKVYACEVTHQGLSSPVTKSFNRGEC
# notes: 13F5.G5 V domains fused directly (no linker) to the N-terminus of 3D12.E3 V domains; human Cγ1/Cκ; also called hIL-1α/βDVD1-Ig
# B3: hIL-1a/bDVD3a-Ig (bispecific antibody, human IgG1, kappa)
# heavy: not shown
# light: DIVMTQSQRFMSTSVGDRVSVTCKASQNVGTNIAWYQQKPGQSPRALIYSASYRYSGVPDRFTGSGSGTDFTLTISNVQSVDLAEYFCQQYTRYPLTFGGGTKLEIKRTVAAPETTVTQSPASLSMAIGEKVTIRCITSTDIDVDMNWYQQKPGEPPKLLISQGNTLRPGVPSRFSSSGSGTDFVFIIENMLSEDVADYYCLQSDNLPLTFGAGTKLELKRRTVAAPSVFIFPPSDEQLKSGTASVVCLLNNFYPREAKVQWKVDNALQSGNSQESVTEQDSKDSTYSLSSTLTLSKADYEKHKVYACEVTHQGLSSPVTKSFNRGEC
# B4: hIL-1a/bDVD6b-Ig (bispecific antibody, human IgG1, kappa)
# heavy: not shown
# light: QIVLTQSPAIMSASPGEKVTITCSASSSVSYMHWFQQKPGASPKLWIYSTSNLASGVPARFSGSGSGTSYSLTVSRMEAEDAATYYCQQRSTYPYTFGGGTKLEIKRTVAAPSVFIFPPQIVLTQSPALMSASPGEKVTMTCSASSSVNYMYWYQQKPRSSPKPWIYLTSNLASGVPARFSGSGSGTSYSLTISSMEAEDAATYYCQQWNSNPYTFGGGTKLEMKRRTVAAPSVFIFPPSDEQLKSGTASVVCLLNNFYPREAKVQWKVDNALQSGNSQESVTEQDSKDSTYSLSSTLTLSKADYEKHKVYACEVTHQGLSSPVTKSFNRGEC
# B5: hIL-1a/bDVD6a-Ig (bispecific antibody, human IgG1, kappa)
# heavy: not shown
# light: QIVLTQSPALMSASPGEKVTMTCSASSSVNYMYWYQQKPRSSPKPWIYLTSNLASGVPARFSGSGSGTSYSLTISSMEAEDAATYYCQQWNSNPYTFGGGTKLEMKRTVAAPSVFIFPPQIVLTQSPAIMSASPGEKVTITCSASSSVSYMHWFQQKPGASPKLWIYSTSNLASGVPARFSGSGSGTSYSLTVSRMEAEDAATYYCQQRSTYPYTFGGGTKLEIKRRTVAAPSVFIFPPSDEQLKSGTASVVCLLNNFYPREAKVQWKVDNALQSGNSQESVTEQDSKDSTYSLSSTLTLSKADYEKHKVYACEVTHQGLSSPVTKSFNRGEC
# Tests used:
# human IL-18 [1] = target: T1, human IL-18 (human, UniProt Q14116 37-193); test: SPR (Biacore)
# T1 construct: also called hIL-18
# human IL-12 [2] = target: T2, human IL-12 (human, UniProt P29459 23-219; P29460 23-328); test: SPR (Biacore)
# T2 construct: also called hIL-12
# T2 sequence (looked up) 1: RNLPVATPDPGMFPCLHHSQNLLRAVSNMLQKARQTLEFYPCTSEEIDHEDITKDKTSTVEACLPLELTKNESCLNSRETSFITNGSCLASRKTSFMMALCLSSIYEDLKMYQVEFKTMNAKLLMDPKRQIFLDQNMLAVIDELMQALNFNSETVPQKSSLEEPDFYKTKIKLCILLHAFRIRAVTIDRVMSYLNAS
# T2 sequence (looked up) 2: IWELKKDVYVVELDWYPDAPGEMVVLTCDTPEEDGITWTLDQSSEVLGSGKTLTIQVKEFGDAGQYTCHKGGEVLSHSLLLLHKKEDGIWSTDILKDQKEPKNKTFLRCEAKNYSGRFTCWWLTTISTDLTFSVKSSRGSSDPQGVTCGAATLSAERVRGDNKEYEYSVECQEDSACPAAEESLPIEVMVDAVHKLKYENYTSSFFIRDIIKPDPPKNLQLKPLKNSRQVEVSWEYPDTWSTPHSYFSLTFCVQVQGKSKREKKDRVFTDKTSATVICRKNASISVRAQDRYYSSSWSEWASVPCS
# human IL-18 [3] = target: T1, human IL-18; test: cell-based or functional assay
# human IL-12 [4] = target: T2, human IL-12; test: cell-based or functional assay
# recombinant human IL-1α [5] = target: T3, recombinant human IL-1α (human, UniProt P01583 113-271); test: cell-based or functional assay
# T3 sequence (looked up): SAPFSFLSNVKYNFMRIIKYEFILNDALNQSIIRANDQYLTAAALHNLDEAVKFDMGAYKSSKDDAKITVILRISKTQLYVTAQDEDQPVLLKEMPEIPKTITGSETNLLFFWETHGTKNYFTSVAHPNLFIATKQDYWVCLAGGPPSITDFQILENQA
# recombinant human IL-1α [6] = target: T3, recombinant human IL-1α; test: SPR (Biacore); end of the range tied to DVD1-Ig by the Kd values of Table 13
# Description: The kinetics of DVD-Ig binding to rhIL1-α and rhIL1-β was determined by surface plasmon resonance-based measurements with a Biacore 3000 instrument (Biacore AB, Uppsala, Sweden) using HBS-EP (10 mM HEPES, pH 7.4, 150 mM NaCl, 3 mM EDTA, and 0.005% surfactant P20) at 25° C. All chemicals were obtained from Biacore AB (Uppsala, Sweden) or otherwise from a different source as described herein. Approximately, 5000 RU of goat anti-human IgG Fcγ fragment specific polyclonal antibody (Pierce Biotechnology Inc, Rockford, Ill.) diluted in 10 mM sodium acetate (pH 4.5) was directly immobilized across a CM5 research grade biosensor chip using a standard amine coupling kit according to manufacturer's instructions and procedures at […]. Unreacted moieties on the biosensor surface were blocked with ethanolamine. Modified carboxymethyl dextran surface in flowcell 2 and 4 was used as a reaction surface. Unmodified carboxymethyl dextran without goat anti-human IgG in flow cell 1 and 3 was used as the reference surface. […] The association and dissociation rate constants, kon (M-1s-1) and koff (s-1) were determined under a continuous flow rate of […]. […] The equilibrium dissociation constant (M) of the reaction between DVD-Ig and rhIL1α/β was then calculated from the kinetic rate constants by the following formula: KD=koff/kon. […]
# recombinant human IL-1α [7] = target: T3, recombinant human IL-1α; test: cell-based or functional assay; remark: listed apart in the source
# recombinant human IL-1β = recombinant human IL-1β (human, UniProt P01584 117-269); test: cell-based or functional assay
binder,measurement,setting,value
B1,Kd,human IL-18 [1],162 pM
same,Kd,human IL-12 [2],113 pM
same,"Potency (IC50, M), IL-18, KG-1 bioassay",human IL-18 [3],7.8e-11 M
same,"Potency (IC50, M), IL-12, PHA blast / PBMC assay",human IL-12 [4],1.18e-10 M
B2,"neutralizing activity, MRC-5 bioassay, fold less than the chimeric Abs",recombinant human IL-1α [5],3 fold
same,fold lower affinity than the chimeric 3D12.E3 Ab,recombinant human IL-1α [6],2 to 3 fold
B3,"Potency (IC50) M, IL-1α, MRC-5 bioassay",recombinant human IL-1α [7],750 pM
B4,"Potency (IC50) M, IL-1α, MRC-5 bioassay",recombinant human IL-1α [7],1000 pM
same,"Potency (IC50) M, IL-1β, MRC-5 bioassay",recombinant human IL-1β,750 pM
B5,"Potency (IC50) M, IL-1α, MRC-5 bioassay",recombinant human IL-1α [7],2300 pM
same,"Potency (IC50) M, IL-1β, MRC-5 bioassay",recombinant human IL-1β,70000 pM
